Reference: US20180282719A1 (published 2018)

Biological target: T1, recombinant soluble human IL-6 receptor (SR344) (human, UniProt P08887 20-344, biotinylated (sites not given) where immobilized via streptavidin or used in phage ELISA)
T1 construct: also called soluble IL-6 receptor; membrane-type IL-6 receptor (when biotinylated and immobilized on the chip)
T1 sequence (looked up): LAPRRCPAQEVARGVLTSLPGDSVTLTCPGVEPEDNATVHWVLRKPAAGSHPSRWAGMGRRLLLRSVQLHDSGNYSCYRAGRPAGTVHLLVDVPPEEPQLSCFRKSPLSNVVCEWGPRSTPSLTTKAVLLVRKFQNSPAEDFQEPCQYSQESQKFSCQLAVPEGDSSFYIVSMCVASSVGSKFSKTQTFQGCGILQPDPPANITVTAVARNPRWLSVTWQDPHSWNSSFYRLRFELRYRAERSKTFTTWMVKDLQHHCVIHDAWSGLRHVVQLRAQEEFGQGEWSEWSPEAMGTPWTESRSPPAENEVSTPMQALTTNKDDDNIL
Experiment: SPR Biacore T100, antibody captured by anti-IgG gamma chain F(ab)2, SR344 analyte, pH 7.4, 37 C
Procedure: Kinetic analyses of antigen-antibody reactions at pH 7.4 were carried out on the four types of antibodies, i.e., the humanized PM1 antibody (wild type: WT), and […], H3pI/L73-IgG1, Fv2-IgG1, and Fv4-IgG1 constructed in Examples 2 and 10, by using a Biacore T100™ surface plasmon resonance system (GE Healthcare) (buffer: 10 mM MES (pH 7.4), 150 mM NaCl, 0.05% TWEEN® 20 (polyoxyethelene sorbitan monolaurate)). Each antibody was bound on a sensor chip on which an anti-IgG γ chain specific F(ab)₂ (Pierce) was immobilized by amine coupling, and then, SR344 adjusted to a concentration of 9.8 to 40 nM was injected thereto as an analyte. The association to and dissociation from SR344 were observed on a real-time basis for the pH-dependent-binding clones. All the measurements were carried out at 37° C. Association rate constants kₐ (1/Ms) and dissociation rate constants kd (1/s) were calculated using Biacore T100™ Evaluation Software (GE Healthcare), and dissociation constants KD (M) were calculated on the basis of those values (Table 7).
The association to and dissociation from SR344 were observed on a real-time basis using the same method as Example 10 for the eleven types of antibodies, humanized PM1 antibody (wild type: WT) and H3pI/L73-IgG1, Fv1-M71, Fv1-M73, Fv2-IgG1, Fv3-M71, Fv3-M73, Fv4-IgG1, Fv4-IgG2, Fv4-M58, and Fv4-M73, constructed as described above. The association rate constants kₐ (1/Ms) and dissociation rate constants kd. (1/s) were calculated by analysis in the same manner, and the dissociation constants KD (M) were calculated on the basis of those values (Table 11).

Kd: 1.4 nM
koff: 0.001 s⁻¹
kon: 720000 M⁻¹ s⁻¹
B1: Fv4-IgG1 (antibody)
heavy: not shown
light: DIQMTQSPSSLSASVGDSVTITCQASTDISSHLNWYQQKPGKAPELLIYYGSHLLSGVPSRFSGSGSGTDFTFTISSLEAEDAATYYCGQGNRLPYTFGQGTKVEIERTVAAPSVFIFPPSDEQLKSGTASVVCLLNNFYPREAKVQWKVDNALQSGNSQESVTEQDSKDSTYSLSSTLTLSKADYEKHKVYACEVTHQGLSSPVTKSFNRGEC
notes: VH3-IgG1 / VL3-CK
